Test results from patent US20180282410A1 (Hoffmann-La Roche, published 2018).

Assays:
[1] = biological target: T1, biotinylated ectodomain of human Robo 4 with C-terminal AcTEV protease site, Avi-tag and 6xHis-tag (human, biotin on the Avi-tag (in vivo biotinylated via co-expression of BirA)); assay: SPR, BioRad ProteOn XPR36, purified Fab, monovalent affinity; human Robo 4; Fab, monovalent affinity
T1 construct: also called biotinylated human Robo 4
T1 chain: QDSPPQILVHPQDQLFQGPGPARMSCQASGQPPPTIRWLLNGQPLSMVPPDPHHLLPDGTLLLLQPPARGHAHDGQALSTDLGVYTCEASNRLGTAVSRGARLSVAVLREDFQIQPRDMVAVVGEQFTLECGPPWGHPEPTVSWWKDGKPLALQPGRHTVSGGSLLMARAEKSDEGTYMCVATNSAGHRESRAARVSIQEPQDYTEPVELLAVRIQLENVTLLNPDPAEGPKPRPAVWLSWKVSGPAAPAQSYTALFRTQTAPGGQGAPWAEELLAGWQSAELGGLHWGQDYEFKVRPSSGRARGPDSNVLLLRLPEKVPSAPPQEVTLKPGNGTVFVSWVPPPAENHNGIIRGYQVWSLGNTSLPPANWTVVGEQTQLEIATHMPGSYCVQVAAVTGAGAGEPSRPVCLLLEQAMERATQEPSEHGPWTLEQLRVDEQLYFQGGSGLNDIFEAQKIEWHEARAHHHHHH

[2] = biological target: T2, murine (mu) Robo 4 ECD-PreS-Avi-His (mouse); assay: SPR, BioRad ProteOn XPR36, purified Fab
T2 construct: also called recombinant murine Robo 4; murine Robo 4
T2 chain: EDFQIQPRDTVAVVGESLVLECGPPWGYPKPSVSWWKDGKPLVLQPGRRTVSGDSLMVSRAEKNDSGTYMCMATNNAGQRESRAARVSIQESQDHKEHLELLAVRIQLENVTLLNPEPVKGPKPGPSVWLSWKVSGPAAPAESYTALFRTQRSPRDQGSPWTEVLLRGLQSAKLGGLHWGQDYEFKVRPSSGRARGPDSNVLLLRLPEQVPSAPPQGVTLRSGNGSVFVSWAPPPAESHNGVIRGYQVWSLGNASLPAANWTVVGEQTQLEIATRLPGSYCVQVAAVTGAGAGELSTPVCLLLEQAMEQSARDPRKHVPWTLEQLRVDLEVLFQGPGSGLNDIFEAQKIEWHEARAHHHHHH

[3] = biological target: T3, recombinant cynomolgus Robo 4 ECD fused to AcTEV protease recognition site, Avi- and 6xHis-tag (cynomolgus); assay: SPR, BioRad ProteOn XPR36, purified Fab, monovalent affinity; cynomolgus Robo 4; Fab, monovalent affinity
T3 construct: Biotinylated in the avidity assay
T3 chain: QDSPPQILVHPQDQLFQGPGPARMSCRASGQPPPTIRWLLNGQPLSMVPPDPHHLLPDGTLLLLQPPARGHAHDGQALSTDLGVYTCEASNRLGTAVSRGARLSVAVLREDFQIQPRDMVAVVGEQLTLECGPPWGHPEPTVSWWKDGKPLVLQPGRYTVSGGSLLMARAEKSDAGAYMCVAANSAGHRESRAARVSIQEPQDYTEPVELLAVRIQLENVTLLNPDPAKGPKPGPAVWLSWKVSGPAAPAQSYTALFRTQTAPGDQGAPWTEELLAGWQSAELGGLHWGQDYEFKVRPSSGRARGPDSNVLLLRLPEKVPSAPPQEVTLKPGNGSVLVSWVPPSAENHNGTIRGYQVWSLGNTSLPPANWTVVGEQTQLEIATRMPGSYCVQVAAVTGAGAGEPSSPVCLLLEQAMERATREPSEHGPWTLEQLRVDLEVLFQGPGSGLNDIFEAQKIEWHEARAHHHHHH

B1: 7G2 Fab (phage display clone, bacterially expressed) (Fab, V domains shown)
VH: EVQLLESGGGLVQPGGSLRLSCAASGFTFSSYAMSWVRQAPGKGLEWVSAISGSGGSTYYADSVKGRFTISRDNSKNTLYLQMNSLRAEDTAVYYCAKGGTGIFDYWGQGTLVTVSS
VL: EIVLTQSPGTLSLSPGERATLSCRASQSVSSSYLAWYQQKPGQAPRLLIYGASSRATGIPDRFSGSGSGTDFTLTISRLEPEDFAVYYCQQGQLPPRTFGQGTKVEIK
notes: also called clone 7G2
[1]
  Kd: 14.9 nM
[2]
  binding result: no binding
[3]
  Kd: 20.5 nM
